From the DeepSol protein solubility set

Assay: soluble on expression in E. coli; label from the status in PepcDB or PDB records

| Sequence | soluble on expression in E. coli |
| --- | --- |
| MISYGELIRQIRQSKKISQKEVYTGVISKSYAIEFEKGTHAISSILLEKIVTKLMVSMEEFFFMYHQEELPEKEDFWEAYERACKTDEIAIWELLYQKISSEEGKINQVKSAAIKLELDHIKGKQVMDKKVVRILENYLIEAVFWTLEDIFLFTRMLPYLSLKSRVPFYYKLLNTLDRYRHFERGRRILQTAIASIIDDFIEKNEIEHMELMIRSLKKISDDCEGAYFKILCMYYHGIIERGEGAEIKQAIAILRVLGYENKALKYEAMYRQFSLKATI | not soluble |
| MITCLIVDDELFAREELADSLSQEADIEIIGQCSNAIEALQTITKEKPQLVFLDIQMPRISGMELIAMLDPDTLPKIVFVTAFDEFAVKAFDNHAFDYLLKPIDADRLSKTLKRVRKDLTPQAVNLIAPRSLEHLPCYSGSKLKVIPIQDVEYVFSDLSGIHVACTKGKVHTQLTLKVLEEKTPLVHCHRQYLISPKAIAEIELLDTGAEVTTLLGDKVPVSRRYLKSLKQLFGFQ | not soluble |
| MITDLILHNHPRMKTITLNDNHIAHLNAKNTTKLEYLNLSNNNLLPTNDIDQLISSKHLWHVLVNGINNDPLAQMQYWTAVRNIIDDTNEVTIDLSGLNLTTQPPGLQNFTSINLDNNQFTHFDATNYDRLVKLSLNSNALESINFPQGRNVSITHISMNNNALRNIDIDRLSSVTYFSAAHNQLEFVQLESCEWLQYLNLSHNQLTDIVAGNKNELLLLDLSHNKLTSLHNDLFPNLNTLLINNNLLSEIKIFYSNFCNVQTLNAANNQLKYINLDFLTYLPSIKSLRLDNNKITHIDTNNTSDIGTLFPIIKQSKTLEHHHHHH | not soluble |
| MITKLDIQEKDGFLTMKDFPMNCIFNKVKTGCGATTIALTNNENYIITVPTTELIENKCYPTKDADGNVKFWKKHERRAGLSPVVNNLFGLYGNFTLELKKKLKDYLSSVGVKKIICTYDKIDKLMEFINPKDFKLTIDEYHNFLKQYSFRDKAINGVLAHFKEFKSYCFLSATPIPNNLKPAIFNDIPEYIADWNTTDDITVYPYHTDKPYMVAAKFIKTYQAKGCLNVNGIESKEAYFFINSVTEIKAILKQTQLTEDDYRIICADNPKNRRTLEEYTISSSADAPKKFNFITSKSFEGVDFHSETGLCFVVSNVQNRHTLVSIDMDIPQIVGRIRTKSNPFRNKVVHIFNTKATDHYTTFEEMEQIVDKEVKAAQERADMLNNTKLSEAATKQQINEIKKVGIESYLSYQENKFVVNDMVAKLQLYSYYIATVVYQSDKSLRETYAQSGIVTTKGKWHIAPEKFVKELIVKPTFRELHKRYCEIKANPMTFDLQTIDIEHEYPILGRAYRQLGVKELKRLRTIKSIQEALGEA | not soluble |
| MITLPQLITTDTDMTAGLTSGKTTGSAEDFLALLAGALGADGAQGKDARITLADLQAAGGKLSKELLTQHGEPGQAVKLADLLAQKANATDETLTDLTQAQHLLSTLTPSLKTSALAALSKTAQHDEKTPALSDEDLASLSALFAMLPGQPVATPVAGETPAENHIALPSLLRGDMPSAPQEETHTLSFSEHEKGKTEASLARASDDRATGPALTPLVVAAAATSAKVEVDSPPAPVTHGAAMPTLSSATAQPLPVASAPVLSAPLGSHEWQQTFSQQVMLFTRQGQQSAQLRLHPEELGQVHISLKLDDNQAQLQMVSPHSHVRAALEAALPMLRTQLAESGIQLGQSSISSESFAGQQQSSSQQQSSRAQHTDAFGAEDDIALAAPASLQAAARGNGAVDIFA | not soluble |
| MITLTGHTLTIEEMKRLLLEGEGVTACPTSMQKVAECREVVEKIVENGKVVYGITTGFGKFSDVLIQKDDVKALQHNLIQSHACGIGDPFPEEVSRGMLILRANTMLKGVSGVRPLVVNMLLEFVNRKIHPVVPQQGSLGASGDLAPLSHLALILLGEGEVFYKGKRVHAMVALTEEGLEPIELEAKEGLALINGTQAMTAQGVLSYIEAEATAYQAELIASMTIEGLQGIIDAFDENVHKARGYKEQVEVASRIRDILHDSKLTTKQGELRVQDAYSLRCIPQVHGASWQVLNYVKEKLEIEMNAATDNPLIFDGGEKVISGGNFHGQPIAFAMDFLKVGMAELANISERRIERLVNPQLNDLPPFLSPEPGLQSGAMIMQYAAASLVSENKTLAHPASVDSIPSSANQEDHVSMGTIASRHAHQIIQNVRRVLSIEMICAMQAAEYRGIENMSTVTKSFYHQGRQQVPSITNDRIFSTDIENITHWLKTNYSIKERLDVNAAL | not soluble |
| MITMKHVILVGDGMADYPLDELDGKTPLQVADKPNMDQLAGMGACGLLRTVPEGMEAGSDVANLSIMGYDPRRYYTGRGPLEAASIGVELGDDDVAFRCNLINADERIVDFNAGHIETAEASSLIDALNHELETRGRFYAGVSYRNLFVIEGRGYTSVRVEPPHDIVGESVAAHLPSGSEEADHIRELMLESAGVLRSHEVNLKRESMGKRPATMIWLWGQGLRPSMEPFSERYGIRGATITAVDLIKGLGVYAGLENIHVPGATGYLDTDYRAKGRYAAGALEEYDFLYVHVEAPDEAGHAGDAEEKIRAIENIDRFVLGRLLDALSDHEHRIAVLPDHPTPIEIRTHVPDPVPCILAGDGVDADQVKSYDEFTVREGSLGTWEAHRLMEIMMDPAARLRQLEHHHHHH | not soluble |
| MITMTEVKGKTANESRVFKTSRVFPTDLNDHNTLFGGKILSEMDMVASISASRHSRKECVTASMDWVDFLHPVRSSDCVSYESFVIWTGRTSMEVFVKVVSEYLISGEKRIAATSFVTFVALSKENNPVPVPRVIPDTEEEKESHRIAVLRAEQRHIRKAESKKVATLLTF | soluble |
| MIVIKTYQEENASALWDVFFNTVRKVNRKDYSNEQVTAWAPESFDTDVWKNKMQSLNPFIAEIDGVIVGYSDLQDDGLIDHFFCHYQHQGKGVGSALMTHILELAKERKLPRVYSHVSITAKPFYERFGFTVVKPQCIDVRGEQLINYVMERQ | not soluble |
| MIVMTKQQYQEILEHSRNALPNEACGLLGGRIENGVKYVEKVYLLRNIDESPEHFSMNPKEQFAAVKDMRNNGWELLGNFHSHPATPSRPSEEDIRLAFDPKASYLILSLKDDTPVLKSFNISSGQATQEELSIVGEEALEHHHHHH | soluble |
| MIVPALIGSLPRPIGLAKKIELYSIGRLSEEKLEEAYRSYTRKAFENLKKARIKVITDGLYRWDDIFNPLIRFIDGVEVNGLFKFYENNFFYRSPVVRGELSLKENPLPGWISIAQEIKEDVYPEAELKAVLPGPVTLAYHSINEYYKDLNELTEAYATVLRELIKELDVKIMELQEPSLAAELSKATRESEEHVSKEVAKKVIEDLARVKKLWVVTYFGTPQVVPKDVILNIDLIEGNVPDEVKGEVGLGIVNARETKMERADRLKDKLRKYIRKFEKVYVTPNTLLDFLPERVAWKKLKLLGRLGGELEHHHHHH | not soluble |
| MIVTTTSGIQGKEIIEYIDIVNGEAIMGANIVRDLFASVRDVVGGRAGSYESKLKEARDIAMDEMKELAKQKGANAIVGVDVDYEVVRDGMLMVAVSGTAVRI | soluble |
| MIYLFSHAGLRDLRDFIDRSTLFAFDLDGTLAPIVSDPAGIMIPPDVHERLVRLNGTASVAVVTGRARVDAARHLGFAPRFLVGNHGAEGLPGADAAEREFIGLCRGWMTQLGELLPEGEGTGIVMEDKSATLSLHYRNAPDRENAHQRILAAVSRLLPAPRRVSGKLVENLVPAAAPHKGDALRCIMRHLGCARALFVGDDVTDEDVFRLGDEAIFGIRVGNSGGSAARYFIRGQDEMAPLLDEILAVLLEHHHHHH | soluble |
| MKAINIALDGPAAAGKSTIAKRVASELSMIYVDTGAMYRALTYKYLKLNKTEDFAKLVDQTTLDLTYKADKGQCVILDNEDVTDFLRNNDVTQHVSYVASKEPVRSFAVKKQKELAAEKGIVMDGRDIGTVVLPDADLKVYMIASVEERAERRYKDNQLRGIESNFEDLKRDIEARDQYDMNREISPLRKADDAVTLDTTGKSIEEVTDEILAMVSQIK | soluble |
| MKALVAVSAVAVVALLGVSSAQADPEADPGAGEANYGGPPSSPRLVDHTEWAQWGSLPSLRVYPSQVGRTASRRLGMAAADAAWAEVLALSPEADTAGMRAQFICHWQYAEIRQPGKPSWNLEPWRPVVDDSEMLASGCNPGSPEESF | soluble |
| MKAMHMEQKIYKAKFSEYQLADNFINFNYLLKFKLGPEDVRAKGAFSTIFESTMLDWDLQLHKQFAGHILHSRESNWVISLNGSGVRDSYPPLHKLYFKVKAMGSDGSIKKSLKYFIDGLPIAPAERRGRMDHRSYTTLQNTQFERDLSTLIAEAKKKAQTIQLETRLEFKKNDLVDMKYLLGNGAPNMPDSLDYYFDAITNKSRHDLKLKTSDGMHFVMTNKEIVCLASQFFRQHLKDTTTEYTVGRADSVQSIDICLTYMITGIYKKPALLSPKLAFEIFALAMQWKVFEPKVLKNSIEKHCCEELQKNYEDIMYVCNMLIIADDAQFANVQNCCIATLVFYHAHDFIRIFVIGNHPLKERFSRRQEFLRPSLTMQVKRAFAASNESKCFIKFLPAIGED | not soluble |
| MKCLKPSIGPVRGTDGDWKNIMKQFLRCGLAFAWSSVLGSSIAMDSLFGLPVRSTVKANLGALREGYVNIAVHGHSPLLVSEIVKQGRSREFIQMAKEKGALGIQFYGICCSGLSAMYRYGGVIPLSNAIGAELVLGTGAIDLWVADVQDVFPSIMDVAKCFKTTVVTTSDSARLPGAEHYAYDHHHSNLAQTQELAKTIVKRAIESFEARRDVPVFIPNYEVDAEIGFSVEYATSRFGSMDVIAKALQEGKIRGVVNLVGCNNPRVMYEKAIADVARKLIENNILVLTNGCASFPLLKLGYCNVKALEWTGKELREFLEPDLPPVWHMGECLDNARASAFFRALADSLKKDIKDMPFAFASPEWSNEKGVGAALGFRLLGINSYHSVYPPVQGSKNVMKYLFEDTEKTLGAVMIVEVDPLKLADRIISDIDEKRKALMWK | not soluble |
| MKCLVTGGNVKVLGKAVHSLSRIGDELYLEPLEDGLSLRTVNSSRSAYACFLFAPLFFQQYQAATPGQDLLRCKILMKSFLSVFRSLAMLEKTVEKCCISLNGRSSRLVVQLHCKFGVRKTHNLSFQDCESLQAVFDPASCPHMLRAPARVLGEAVLPFSPALAEVTLGIGRGRRVILRSYHEEEADSTAKAMVTEMCLGEEDFQQLQAQEGVAITFCLKEFRGLLSFAESANLNLSIHFDAPGRPAIFTIKDSLLDGHFVLATLSDTDSHSQDLGSPERHQPVPQLQAHSTPHPDDFANDDIDSYMIAMETTIGNEGSRVLPSISLSPGPQPPKSPGPHSEEEDEAEPSTVPGTPPPKKFRSLFFGSILAPVRSPQGPSPVLAEDSEGEGLEHHHHHH | not soluble |
| MKCPRCGREYISSIPPFCICGEELEITYDYSSVDVRKWKRRNPGVWRYKELLPEVKKIITLQEGGTPLIKARISEKINVDVYIKDETRNPTGSFRDRLATVAISYGLPYASNGFIVASDGNAAASVAAYSARAEKECFVVVPRKVDKGKLIQMIAFGARIIRYGDSVDEAIEYARELSKLNGLYNVTPEDNIIGLEGQKTIAFELWEEINPTHVIVPTGSGSYIYSIYKGFKELIKIGVLEKMPRLIAVQTERCNPIAAEILGLKKECKETKALGLYVKNPVMKSRVIRAIKESGGTAVVVNENDIITGEKLLANEGIFAELSSAVVMPALLSLVEKGIIEKGDKVVLVVTGSGLKIGEGGREKFSIGGTKLEILKILEEREMYAYEIWQALGKPLKYQAVHQHIKELQELGLIKEAYRKGKRIYYKLTERGRRLIENLE | soluble |
| MKCVFVTVGTTSFDDLIACVSAPDSLQKIESLGYNRLILQIGRGTVVPEPFSTESFTLDVYRYKDSLKEDIQKADLVISHAGAGSCLETLEKGKPLVVVINEKLMNNHQLELAKQLHKEGHLFYCTCSTLPGLLQSMDLSTLKCYPPGQPEKFSAFLDKVVGLQK | soluble |
| MKDGEAATGQAASRPKRADARRNEKNLLDAAAAVFVRSGVEAPVRDIAAEAGVGTATIYRHFPTRADLIIGVYRHQVEACAEAGPALLASSPTPYAALAGWIDLFVDFLVTKHGLAAVLQSDSAGFETLHAYFLDRLVPVCTDLLAAATDSGEIDTDVPPLALMRGVGNLCIGAETPNPSYDARQLVRILIAGLRAAD | not soluble |
